Reference: the supplement of paper PMC10724198

The sequences below were run on Saccharomyces cerevisiae (assay: protein stability index of tFT-peptide fusion in deletion strain of DAS1 (PSI (0-1 scale)); higher = more stable (slower turnover)).
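Throughout, for protein stability index of tFT-peptide fusion in deletion strain of DAS1: PSI is a weighted mean of each variant's read distribution over the sorted stability bins, computed only for variants having over 10 reads in total.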
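Throughout, for protein stability index of tFT-peptide fusion in deletion strain of DOA10: PSI per variant is the weighted mean of its sequencing read distribution over the sorted stability bins, counting only variants with over 10 reads summed across bins.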

Sequence | protein stability index
PSLAASFWRVVH | 0.695
PSLAASFWRVVI | 0.716
PSLAASFWRWVG | 0.706
PSLAASFWSVVG | 0.709
PSLAASFWWVVG | 0.718
PSLAASYWRVVG | 0.672
PSLAFSFWRVVG | 0.676
PSLCASFWRVVG | 0.68
PSLLASFWRVVG | 0.695
PSMAASFWRVVG | 0.699
PSQAASFWRVVG | 0.695
PSYAASFWRVVG | 0.715
RDKRNHLIKLLN | 0.612
RKILRQKMNHQN | 0.69
RLIKPLPVQFLN | 0.627
RLIQPLIVQFLN | 0.542
RLIQPLMVQFLN | 0.598
RLIQPLPEQFLN | 0.592
RLIQPLPVDFLN | 0.624
RLIQPLPVIFLN | 0.548

Sequence | protein stability index
RLIQPLPVNFLN | 0.579
RLIQPLPVPFLN | 0.607
RLIQPLPVQFLG | 0.6
RLIQPLPVQFLH | 0.582
RLIQPLPVQFLK | 0.881
RLIQPLPVQFLM | 0.595
RLIQPLPVQFLNA | 0.612
RLIQPLPVQFLNY | 0.641
RLIQPLPVQKLN | 0.809
RLIQPNPVQFLN | 0.576
RLITPLPVQFLN | 0.605
RMIQPLPVQFLN | 0.571
RTSCGYKFRTNN | 0.685
SLIQPLPVQFLN | 0.618
TRGAVGGWRLVG | 0.68
VPGAVGGWRLVG | 0.667
VRGAVGGIRLVG | 0.682
VRGAVGGRRLVG | 0.675
VRGAVGGWELVG | 0.63
VRGAVGGWRLDG | 0.691

Sequence | protein stability index
VRGAVGGWRLVA | 0.677
VRGAVGGWRLVD | 0.684
VRGAVGGWRLVGN | 0.67
VRGAVGGWRLVGR | 0.674
VRGAVGGWRLVH | 0.666
VRGAVGGWRRVG | 0.67
VRGAVGGWRSVG | 0.664
VRGAVGGWYLVG | 0.691
VRGAVGQWRLVG | 0.663
VRGAVHGWRLVG | 0.679
VRGAVSGWRLVG | 0.683
VRGEVGGWRLVG | 0.606
VRGFVGGWRLVG | 0.691
VRGNVGGWRLVG | 0.667
VRGPVGGWRLVG | 0.682
VRGVVGGWRLVG | 0.679
VRLAVGGWRLVG | 0.679
VTGAVGGWRLVG | 0.672
VVVYLSCVACIN | 0.0435
YSMRWTFRYWVN | 0.495

These sequences were tested on Saccharomyces cerevisiae (assay: protein stability index of tFT-peptide fusion in deletion strain of DOA10 (PSI (0-1 scale)); higher = more stable (slower turnover)).
Description: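 MPS profiling in S. cerevisiae of two library types built from selected 12-aa C-degron peptides (IN1, IN2, LN1, LN3, VN2, R1-R5, W1-W3, Atg1 and Rpa12 C-termini): saturation mutagenesis libraries and C-terminal +1 capping libraries (13 aa). Each peptide is fused to the C-terminus of a sfGFP-mCherry timer, after a GGGS linker. Cells are FACS-sorted into 8 mCherry/sfGFP bins and sequenced. PSI runs from 0 (unstable) to 1 (stable), measured once in wild type and in the das1Δ or doa10Δ background.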

Sequence | protein stability index
AETLPMCPLLLR | 0.697
AHTLPMCPLLLR | 0.664
AIILPMCPLLLR | 0.617
AIPLPMCPLLLR | 0.653
AITLAMCPLLLR | 0.65
AITLKMCPLLLR | 0.624
AITLLMCPLLLR | 0.629
AITLPLCPLLLR | 0.647
AITLPMCGLLLR | 0.63
AITLPMCILLLR | 0.603
AITLPMCMLLLR | 0.651
AITLPMCPDLLR | 0.677
AITLPMCPLLDR | 0.7
AITLPMCPLLFR | 0.669
AITLPMCPLLLA | 0.313
AITLPMCPLLLE | 0.652
AITLPMCPLLLG | 0.544
AITLPMCPLLLRP | 0.636
AITLPMCPLLLRW | 0.621
AITLPMCPLNLR | 0.673
AITLPMCPLSLR | 0.665
AITLPMCPLYLR | 0.675
AITLPMCPVLLR | 0.623
AITLPMCPWLLR | 0.667
AITLPMMPLLLR | 0.639
AITLPMPPLLLR | 0.682
AITLPMSPLLLR | 0.673
ALVSLPILLFFR | 0.653

Sequence | protein stability index
ARTLPMCPLLLR | 0.669
ASLRVLLPLYFR | 0.666
CDVSLPILLFFR | 0.648
CFVSLPILLFFR | 0.579
CLKSLPILLFFR | 0.618
CLLSLPILLFFR | 0.571
CLVALPILLFFR | 0.512
CLVGLPILLFFR | 0.589
CLVPLPILLFFR | 0.57
CLVSLAILLFFR | 0.351
CLVSLEILLFFR | 0.262
CLVSLIILLFFR | 0.363
CLVSLPILLEFR | 0.638
CLVSLPILLFFE | 0.57
CLVSLPILLFFG | 0.52
CLVSLPILLFFH | 0.474
CLVSLPILLFFI | 0.436
CLVSLPILLFFRT | 0.516
CLVSLPILLFFRY | 0.483
CLVSLPILLFGR | 0.523
CLVSLPILLFTR | 0.477
CLVSLPILLTFR | 0.627
CLVSLPINLFFR | 0.682
CLVSLPIQLFFR | 0.658
CLVSLPITLFFR | 0.65
CLVSLRILLFFR | 0.282
CLVSTPILLFFR | 0.623
